Test results published in the PETadex activity labels (doi:10.3390/ijms25158120).

How the values were obtained:
PET [1] = experiment: Proxy for plastic degradation [Released monomer concentration (HPLC/LC-MS) (TPA)]; conditions: pH 7
PET [2] = experiment: Proxy for plastic degradation [Released monomer concentration (HPLC/LC-MS) (BHET)]; conditions: pH 7
BHET = experiment: Proxy for plastic degradation [Released monomer concentration (HPLC/LC-MS) (MHET)]; conditions: pH 7
PET [3] = experiment: as above; conditions: pH 7
PET [4] = experiment: Proxy for plastic degradation [Released monomer concentration (HPLC/LC-MS) (TPA+MHET+BHET)]; conditions: pH 7
p-NP-C4 = conditions: pH 6; 70 °C
[5] = Melting temperature [DSF / Thermofluor]; conditions: pH 8.5
pNPB [6] = experiment: Proxy for plastic degradation [Residual activity]; conditions: pH 7
pNPB [7] = experiment: Proxy for plastic degradation [Relative activity]; conditions: pH 7
pNPB [8] = experiment: Proxy for plastic degradation [Specific activity]
PET [9] = experiment: Proxy for plastic degradation [Released monomer concentration (HPLC/LC-MS) (TPA+MHET+BHET+Total aromatic products)]; conditions: pH 7, 0 h
[10] = 30 °C, 0 h, part of the chain shown
[11] = 30 °C, 48 h, part of the chain shown
[12] = 30 °C, 72 h, part of the chain shown
[13] = 30 °C, 96 h, part of the chain shown

B1: unnamed (protein)
chain: MNFPRASRLMQAAVLGGLMAVSAAATAQTNPYARGPNPTAASLEASAGPFTVRSFTVSRPSGYGAGTVYYPTNAGGTVGAIAIVPGYTARQSSIKWWGPRLASHGFVVITIDTNSTLDQPSSRSSQQMAALRQVASLNGTSSSPIYGKVDTARMGVMGWSMGGGGSLISAANNPSLKAAAPQAPWDSSTNFSSVTVPTLIFACENDSIAPVNSSALPIYDSMSRNAKQFLEINGGSHSCANSGNSNQALIGKKGVAWMKRFMDNDTRYSTFACENPNSTRVSDFRTANCS
PET [1]; [10]
  Proxy for plastic degradation: 0 µM
PET [1]; [11]
  Proxy for plastic degradation: 60 µM
PET [2]; [10]
  Proxy for plastic degradation: 0 µM
PET [2]; [12]
  Proxy for plastic degradation: 26 µM
BHET; [10]
  Proxy for plastic degradation: 0 µM
BHET; 30 °C, 20 h, part of the chain shown
  Proxy for plastic degradation: 12 µM
BHET; 30 °C, 40 h, part of the chain shown
  Proxy for plastic degradation: 19 µM
BHET; 30 °C, 60 h, part of the chain shown
  Proxy for plastic degradation: 24 µM
BHET; 50 °C, 0 h, part of the chain shown
  Proxy for plastic degradation: 0 µM
BHET; 50 °C, 40 h, part of the chain shown
  Proxy for plastic degradation: 5.9 µM
BHET; 50 °C, 60 h, part of the chain shown
  Proxy for plastic degradation: 5.6 µM
BHET; 70 °C, 0 h, part of the chain shown
  Proxy for plastic degradation: 0 µM
BHET; 70 °C, 20 h, part of the chain shown
  Proxy for plastic degradation: 2.3 µM
BHET; 70 °C, 40 h, part of the chain shown
  Proxy for plastic degradation: 3 µM
BHET; 70 °C, 60 h, part of the chain shown
  Proxy for plastic degradation: 1.85 µM
BHET; part of the chain shown
  Proxy for plastic degradation: 4 µM
PET [3]; [10]
  Proxy for plastic degradation: 0 µM
PET [3]; [11]
  Proxy for plastic degradation: 505 µM
PET [3]; [13]
  Proxy for plastic degradation: 460 µM
PET [4]; [10]
  Proxy for plastic degradation: 0 µM
PET [4]; 30 °C, 24 h, part of the chain shown
  Proxy for plastic degradation: 580 µM
PET [4]; [11]
  Proxy for plastic degradation: 590 µM
PET [4]; [12]
  Proxy for plastic degradation: 600 µM
PET [4]; [13]
  Proxy for plastic degradation: 520 µM

B2: unnamed (protein)
chain: MKIVKTLLTVIFSVLMVVSMAHAVQIGPNPTSTLLNGDGPFAVSSSSVSSLACGTGCAGGTVYYPTTAGQYGVIAVCPGYTGTSSSIAWFARRLATHGFVTIAMDTNSTLDYPSSRATQLAAALRYLINSSSSTIRSRIRTADRGVAGHSMGGGGTLIASADDSTLRVGIPMTPWNTYTSFSSVRVPQMIFGADGDTIASASSHARPFYNSITQAEKAYALLNDASHFTPNSTDQRIGRYGVAFAKRFVDGDTRYNPFLCGAEHTAYATSSRFDTYLSNCPY
p-NP-C4
  Km: 80 µM
  kcat: 447 s⁻¹
  kcat/Km: 5.59e+06 M⁻¹ s⁻¹
[5]
  Melting temperature: 82 °C
pNPB [6]; 50 °C, 0 h
  Proxy for plastic degradation: 100%
pNPB [6]; 50 °C, 0.33 h
  Proxy for plastic degradation: 54%
pNPB [6]; 50 °C, 0.5 h
  Proxy for plastic degradation: 38%
pNPB [6]; 50 °C, 1 h
  Proxy for plastic degradation: 49%
pNPB [6]; 50 °C, 2 h
  Proxy for plastic degradation: 57%
pNPB [6]; 50 °C, 3 h
  Proxy for plastic degradation: 46%
pNPB [6]; 50 °C, 6 h
  Proxy for plastic degradation: 65%
pNPB [6]; 50 °C, 24 h
  Proxy for plastic degradation: 52%
pNPB [6]; 50 °C, 48 h
  Proxy for plastic degradation: 55%
pNPB [6]; 50 °C, 72 h
  Proxy for plastic degradation: 43%
pNPB [6]; 50 °C, 96 h
  Proxy for plastic degradation: 30%
pNPB [6]; 70 °C, 0 h
  Proxy for plastic degradation: 100%
pNPB [6]; 70 °C, 0.33 h
  Proxy for plastic degradation: 54%
pNPB [6]; 70 °C, 0.5 h
  Proxy for plastic degradation: 51%
pNPB [6]; 70 °C, 2 h
  Proxy for plastic degradation: 70%
pNPB [6]; 70 °C, 3 h
  Proxy for plastic degradation: 51%
pNPB [6]; 70 °C, 6 h
  Proxy for plastic degradation: 50%
pNPB [6]; 70 °C, 24 h
  Proxy for plastic degradation: 52%
pNPB [6]; 70 °C, 48 h
  Proxy for plastic degradation: 47%
pNPB [6]; 70 °C, 72 h
  Proxy for plastic degradation: 20%
pNPB [6]; 70 °C, 96 h
  Proxy for plastic degradation: 17%
pNPB [7]; 50 °C, 0 h
  Proxy for plastic degradation: 100%
pNPB [7]; 50 °C, 0.33 h
  Proxy for plastic degradation: 55%
pNPB [7]; 50 °C, 0.5 h
  Proxy for plastic degradation: 38%
pNPB [7]; 50 °C, 1 h
  Proxy for plastic degradation: 50%
pNPB [7]; 50 °C, 2 h
  Proxy for plastic degradation: 60%
pNPB [7]; 50 °C, 4 h
  Proxy for plastic degradation: 48%
pNPB [7]; 50 °C, 6 h
  Proxy for plastic degradation: 65%
pNPB [7]; 50 °C, 24 h
  Proxy for plastic degradation: 50%
pNPB [7]; 50 °C, 48 h
  Proxy for plastic degradation: 52%
pNPB [7]; 50 °C, 72 h
  Proxy for plastic degradation: 40%
pNPB [7]; 50 °C, 96 h
  Proxy for plastic degradation: 35%
pNPB [7]; 70 °C, 0 h
  Proxy for plastic degradation: 100%
pNPB [7]; 70 °C, 0.33 h
  Proxy for plastic degradation: 55%
pNPB [7]; 70 °C, 0.5 h
  Proxy for plastic degradation: 52%
pNPB [7]; 70 °C, 1 h
  Proxy for plastic degradation: 50%
pNPB [7]; 70 °C, 2 h
  Proxy for plastic degradation: 70%
pNPB [7]; 70 °C, 4 h
  Proxy for plastic degradation: 50%
pNPB [7]; 70 °C, 6 h
  Proxy for plastic degradation: 48%
pNPB [7]; 70 °C, 24 h
  Proxy for plastic degradation: 50%
pNPB [7]; 70 °C, 48 h
  Proxy for plastic degradation: 40%
pNPB [7]; 70 °C, 72 h
  Proxy for plastic degradation: 20%
pNPB [7]; 70 °C, 96 h
  Proxy for plastic degradation: 18%
pNPB [8]; pH 4
  Proxy for plastic degradation: 0 U/mg
pNPB [8]; pH 5
  Proxy for plastic degradation: 225 U/mg
pNPB [8]; pH 7
  Proxy for plastic degradation: 200 U/mg
pNPB [8]; pH 7, 50 °C
  Proxy for plastic degradation: 500 U/mg
pNPB [8]; pH 9
  Proxy for plastic degradation: 150 U/mg
pNPB [8]; pH 10
  Proxy for plastic degradation: 75 U/mg
PET [1]; 30 °C, 0 h
  Proxy for plastic degradation: 0 µM
PET [1]; 50 °C, 0 h
  Proxy for plastic degradation: 0 µM
PET [1]; 50 °C, 48 h
  Proxy for plastic degradation: 140 µM
PET [1]; 50 °C, 96 h
  Proxy for plastic degradation: 330 µM
PET [1]; 70 °C, 0 h
  Proxy for plastic degradation: 0 µM
PET [1]; 70 °C, 24 h
  Proxy for plastic degradation: 180 µM
PET [2]; 30 °C, 0 h
  Proxy for plastic degradation: 0 µM
PET [2]; 50 °C, 0 h
  Proxy for plastic degradation: 0 µM
PET [2]; 50 °C, 48 h
  Proxy for plastic degradation: 10 µM
PET [2]; 70 °C, 0 h
  Proxy for plastic degradation: 0 µM
PET [2]; 70 °C, 24 h
  Proxy for plastic degradation: 5 µM
PET [2]; 70 °C, 48 h
  Proxy for plastic degradation: 3 µM
PET [2]; 70 °C, 72 h
  Proxy for plastic degradation: 2 µM
BHET; 30 °C, 0 h
  Proxy for plastic degradation: 0 µM
BHET; 30 °C, 40 h
  Proxy for plastic degradation: 4 µM
BHET; 30 °C, 60 h
  Proxy for plastic degradation: 5 µM
BHET; 50 °C, 0 h
  Proxy for plastic degradation: 0 µM
BHET; 70 °C, 0 h
  Proxy for plastic degradation: 0 µM
PET [3]; 30 °C, 0 h
  Proxy for plastic degradation: 0 µM
PET [3]; 30 °C, 24 h
  Proxy for plastic degradation: 240 µM
PET [3]; 50 °C, 0 h
  Proxy for plastic degradation: 0 µM
PET [3]; 70 °C, 0 h
  Proxy for plastic degradation: 0 µM
PET [3]; 70 °C, 24 h
  Proxy for plastic degradation: 180 µM
PET [4]; 30 °C, 0 h
  Proxy for plastic degradation: 0 µM
PET [4]; 30 °C, 24 h
  Proxy for plastic degradation: 320 µM
PET [4]; 30 °C, 48 h
  Proxy for plastic degradation: 380 µM
PET [4]; 30 °C, 72 h
  Proxy for plastic degradation: 390 µM
PET [4]; 30 °C, 96 h
  Proxy for plastic degradation: 400 µM
PET [4]; 50 °C, 0 h
  Proxy for plastic degradation: 0 µM
PET [4]; 50 °C, 24 h
  Proxy for plastic degradation: 500 µM
PET [4]; 50 °C, 48 h
  Proxy for plastic degradation: 620 µM
PET [4]; 50 °C, 72 h
  Proxy for plastic degradation: 630 µM
PET [4]; 50 °C, 96 h
  Proxy for plastic degradation: 700 µM
PET [4]; 70 °C, 0 h
  Proxy for plastic degradation: 0 µM
PET [4]; 70 °C, 24 h
  Proxy for plastic degradation: 370 µM
PET [4]; 70 °C, 48 h
  Proxy for plastic degradation: 410 µM
PET [4]; 70 °C, 72 h
  Proxy for plastic degradation: 405 µM
PET [4]; 70 °C, 96 h
  Proxy for plastic degradation: 410 µM
PET [9]; 30 °C
  Proxy for plastic degradation: 0 µM
PET [9]; 50 °C
  Proxy for plastic degradation: 0 µM
PET [9]; 70 °C
  Proxy for plastic degradation: 0 µM

B3: unnamed (protein)
chain: MQTNPYARGPNPTAASLEASAGPFTVRSFTVSRPSGYGAGTVYYPTNAGGTVGAIAIVPGYTARQSSIKWWGPRLASHGFVVITIDTNSTLDQPSSRSSQQMAALRQVASLNGTSSSPIYGKVDTARMGVMGWSMGGGGSLISAANNPSLKAAAPQAPWDSSTNFSSVTVPTLIFACENDSIAPVNSSALPIYDSMSRNAKQFLEINGGSHSCANSGNSNQALIGKKGVAWMKRFMDNDTRYSTFACENPNSTRVSDFRTANCSLEHHHHHH
BHET; 30 °C, 0 h
  Proxy for plastic degradation: 0 µM
BHET; 30 °C, 20 h
  Proxy for plastic degradation: 12 µM
BHET; 30 °C, 40 h
  Proxy for plastic degradation: 20 µM
BHET; 30 °C, 60 h
  Proxy for plastic degradation: 25 µM
BHET; 50 °C, 0 h
  Proxy for plastic degradation: 0 µM
BHET; 50 °C, 20 h
  Proxy for plastic degradation: 5 µM
BHET; 50 °C, 40 h
  Proxy for plastic degradation: 5.5 µM
BHET; 50 °C, 60 h
  Proxy for plastic degradation: 5.5 µM
BHET; 70 °C, 0 h
  Proxy for plastic degradation: 0 µM
BHET; 70 °C, 20 h
  Proxy for plastic degradation: 2.5 µM
BHET; 70 °C, 40 h
  Proxy for plastic degradation: 3 µM
BHET; 70 °C, 60 h
  Proxy for plastic degradation: 2 µM
PET [9]; 30 °C
  Proxy for plastic degradation: 0 µM
